The results in this text go back to the supplement of paper PMC5998384.

Data set [1] deals with HeLa Kyoto. In words: solubility in G1/S (NP-40 vs SDS abundance) (log2 ratio); higher = more soluble. The note with it: cell cycle stage: G1/S.
In data set [2] the test system is HeLa Kyoto. In words: solubility change mitosis vs G1/S (difference of NP-40 vs SDS log2 ratios) (log2 ratio difference); higher = more soluble in mitosis.
Data set [3] concerns HeLa Kyoto. Nature of the data set: melting temperature (median over replicates), in situ; higher = more thermally stable.
In data set [4] the test system is HeLa Kyoto. In words: thermal stability score vs G1/S (z-score of summed log2 fold changes over temperatures); higher = more thermally stable than in G1/S.
The mark [5] stands for this setting: cell cycle stage: early G1 (4.5 h after nocodazole release).
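For melting temperature (median over replicates), in situ in this document: HeLa Kyoto cells synchronized by double thymidine or nocodazole block, proteins quantified by TMT10plex mass spectrometry, three independent biological replicates.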
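For solubility change mitosis vs G1/S (difference of NP-40 vs SDS log2 ratios) in this document: synchronized HeLa Kyoto cells (double thymidine block for G1/S, nocodazole release for mitosis), protein amounts in NP-40 versus SDS lysates quantified by mass spectrometry, three biological replicates.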
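For solubility in G1/S (NP-40 vs SDS abundance) in this document: HeLa Kyoto cells arrested at G1/S by double thymidine block, proteins quantified by TMT10plex mass spectrometry in mild NP-40 versus SDS extracts, three biological replicates.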
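For thermal stability score vs G1/S (z-score of summed log2 fold changes over temperatures) in this document: synchronized HeLa Kyoto cells, proteins quantified by TMT10plex mass spectrometry, three biological replicates, mitosis taken 0.5 h after nocodazole release, G1/S directly after double thymidine block.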

Consider “MAMAYLAWRLARRSCPSSLQVTSFPVVQLHMNRTAMRASQKDFENSMNQVKLLKKDPGNEVKLKLYALYKQATEGPCNMPKPGVFDLINKAKWDAWNALGSLPKEAARQNYVDLVSSLSPSLESSSQVEPGTDRKSTGFETLVVTSEDGITKIMFNRPKKKNAINTEMYHEIMRALKAASKDDSIITVLTGNGDYYSSGNDLTNFTDIPPGGVEEKAKNNAVLLREFVGCFIDFPKPLIAVVNGPAVGISVTLLGLFDAVYASDRATFHTPFSHLGQSPEGCSSYTFPKIMSPAKATEMLIFGKKLTAGEACAQGLVTEVFPDSTFQKEVWTRLKAFAKLPPNALRISKEVIRKREREKLHAVNAEECNVLQGRWLSDECTNAVVNFLSRKSKL [ECI2]”, for which the “solubility in G1/S (log2)” value in the data set on HeLa Kyoto [1] was determined as 0.369. The “solubility change mitosis (log2)” value with HeLa Kyoto [2] is -0.0636. The values for the melting temperature in the data set on HeLa Kyoto [3] (cell cycle stage: G1/S) and with HeLa Kyoto [3] (cell cycle stage: mitosis) were 53.6 °C and 53.2 °C, respectively. Also, the thermal stability score was -0.204 in the data set on HeLa Kyoto [4] (setting [5]) and 0.871 in the data set on HeLa Kyoto [4] (cell cycle stage: mitosis).
Consider “MAMDQVNALCEQLVKAVTVMMDPNSTQRYRLEALKFCEEFKEKCPICVPCGLRLAEKTQVAIVRHFGLQILEHVVKFRWNGMSRLEKVYLKNSVMELIANGTLNILEEENHIKDALSRIVVEMIKREWPQHWPDMLIELDTLSKQGETQTELVMFILLRLAEDVVTFQTLPPQRRRDIQQTLTQNMERIFSFLLNTLQENVNKYQQVKTDTSQESKAQANCRVGVAALNTLAGYIDWVSMSHITAENCKLLEILCLLLNEQELQLGAAECLLIAVSRKGKLEDRKPLMVLFGDVAMHYILSAAQTADGGGLVEKHYVFLKRLCQVLCALGNQLCALLGADSDVETPSNFGKYLESFLAFTTHPSQFLRSSTQMTWGALFRHEILSRDPLLLAIIPKYLRASMTNLVKMGFPSKTDSPSCEYSRFDFDSDEDFNAFFNSSRAQQGEVMRLACRLDPKTSFQMAGEWLKYQLSTFLDAGSVNSCSAVGTGEGSLCSVFSPSFVQWEAMTLFLESVITQMFRTLNREEIPVNDGIELLQMVLNFDTKDPLILSCVLTNVSALFPFVTYRPEFLPQVFSKLFSSVTFETVEESKAPRTRAVRNVRRHACSSIIKMCRDYPQLVLPNFDMLYNHVKQLLSNELLLTQMEKCALMEALVLISNQFKNYERQKVFLEELMAPVASIWLSQDMHRVLSDVDAFIAYVGTDQKSCDPGLEDPCGLNRARMSFCVYSILGVVKRTCWPTDLEEAKAGGFVVGYTSSGNPIFRNPCTEQILKLLDNLLALIRTHNTLYAPEMLAKMAEPFTKALDMLDAEKSAILGLPQPLLELNDSPVFKTVLERMQRFFSTLYENCFHILGKAGPSMQQDFYTVEDLATQLLSSAFVNLNNIPDYRLRPMLRVFVKPLVLFCPPEHYEALVSPILGPLFTYLHMRLSQKWQVINQRSLLCGEDEAADENPESQEMLEEQLVRMLTREVMDLITVCCVSKKGADHSSAPPADGDDEEMMATEVTPSAMAELTDLGKCLMKHEDVCTALLITAFNSLAWKDTLSCQRTTSQLCWPLLKQVLSGTLLADAVTWLFTSVLKGLQMHGQHDGCMASLVHLAFQIYEALRPRYLEIRAVMEQIPEIQKDSLDQFDCKLLNPSLQKVADKRRKDQFKRLIAGCIGKPLGEQFRKEVHIKNLPSLFKKTKPMLETEVLDNDGGGLATIFEP [XPO5]”, for which the “solubility in G1/S (log2)” value with HeLa Kyoto [1] was -0.158. Moreover, the “solubility change mitosis (log2)” value in the data set with HeLa Kyoto [2] was -0.175. For the same sequence, the results for the melting temperature in the data set with HeLa Kyoto [3] (cell cycle stage: G1/S) and in the data set with HeLa Kyoto [3] (cell cycle stage: mitosis) were 49 °C and 48.9 °C, respectively. Besides, the thermal stability score in the data set with HeLa Kyoto [4] (setting [5]) turned out to be 0.753; in the data set with HeLa Kyoto [4] (cell cycle stage: mitosis), 2.34.
Take “MAMGDDKSFDDEESVDGNRPSSAASAFKVPAPKTSGNPANSARKPGSAGGPKVGGASKEGGAGAVDEDDFIKAFTDVPSIQIYSSRELEETLNKIREILSDDKHDWDQRANALKKIRSLLVAGAAQYDCFFQHLRLLDGALKLSAKDLRSQVVREACITVAHLSTVLGNKFDHGAEAIVPTLFNLVPNSAKVMATSGCAAIRFIIRHTHVPRLIPLITSNCTSKSVPVRRRSFEFLDLLLQEWQTHSLERHAAVLVETIKKGIHDADAEARVEARKTYMGLRNHFPGEAETLYNSLEPSYQKSLQTYLKSSGSVASLPQSDRSSSSSQESLNRPFSSKWSTANPSTVAGRVSAGSSKASSLPGSLQRSRSDIDVNAAAGAKAHHAAGQSVRSGRLGAGALNAGSYASLEDTSDKLDGTASEDGRVRAKLSAPLAGMGNAKADSRGRSRTKMVSQSQPGSRSGSPGRVLTTTALSTVSSGVQRVLVNSASAQKRSKIPRSQGCSREASPSRLSVARSSRIPRPSVSQGCSREASRESSRDTSPVRSFQPLASRHHSRSTGALYAPEVYGASGPGYGISQSSRLSSSVSAMRVLNTGSDVEEAVADALKKPARRRYESYGMHSDDDANSDASSACSERSYSSRNGSIPTYMRQTEDVAEVLNRCASSNWSERKEGLLGLQNLLKNQRTLSRVELKRLCEIFTRMFADPHGKRVFSMFLETLVDFIQVHKDDLQDWLFVLLTQLLKKMGADLLGSVQAKVQKALDVTRESFPNDLQFNILMRFTVDQTQTPSLKVKVAILKYIETLAKQMDPGDFINSSETRLAVSRVITWTTEPKSSDVRKAAQSVLISLFELNTPEFTMLLGALPKTFQDGATKLLHNHLRNTGNGTQSSMGSPLTRPTPRSPANWSSPLTSPTNTSQNTLSPSAFDYDTENMNSEDIYSSLRGVTEAIQNFSFRSQEDMNEPLKRDSKKDDGDSMCGGPGMSDPRAGGDATDSSQTALDNKASLLHSMPTHSSPRSRDYNPYNYSDSISPFNKSALKEAMFDDDADQFPDDLSLDHSDLVAELLKELSNHNERVEERKIALYELMKLTQEESFSVWDEHFKTILLLLLETLGDKEPTIRALALKVLREILRHQPARFKNYAELTVMKTLEAHKDPHKEVVRSAEEAASVLATSISPEQCIKVLCPIIQTADYPINLAAIKMQTKVIERVSKETLNLLLPEIMPGLIQGYDNSESSVRKACVFCLVAVHAVIGDELKPHLSQLTGSKMKLLNLYIKRAQTGSGGADPTTDVSGQS [CLASP2]”: the “solubility in G1/S (log2)” value in the data set with HeLa Kyoto [1] is -0.0972. In the data set with HeLa Kyoto [2], the “solubility change mitosis (log2)” value was -0.0766. Moreover, the melting temperature in the data set on HeLa Kyoto [3] (cell cycle stage: G1/S) and with HeLa Kyoto [3] (cell cycle stage: mitosis) was 49.7 °C each time. Besides, the thermal stability score in the data set on HeLa Kyoto [4] (setting [5]) was determined as 0.157; in the data set with HeLa Kyoto [4] (cell cycle stage: mitosis), 0.371.
As to “MAMLVLVPGRVMRPLGGQLWRFLPRGLEFWGPAEGTARVLLRQFCARQAEAWRASGRPGYCLGTRPLSTARPPPPWSQKGPGDSTRPSKPGPVSWKSLAITFAIGGALLAGMKHVKKEKAEKLEKERQRHIGKPLLGGPFSLTTHTGERKTDKDYLGQWLLIYFGFTHCPDVCPEELEKMIQVVDEIDSITTLPDLTPLFISIDPERDTKEAIANYVKEFSPKLVGLTGTREEVDQVARAYRVYYSPGPKDEDEDYIVDHTIIMYLIGPDGEFLDYFGQNKRKGEIAASIATHMRPYRKKS [SCO1]”, the “solubility in G1/S (log2)” value in the data set with HeLa Kyoto [1] turned out to be 0.47. Also, the “solubility change mitosis (log2)” value in the data set on HeLa Kyoto [2] is -0.107. Further, the results for the melting temperature with HeLa Kyoto [3] (cell cycle stage: G1/S) and with HeLa Kyoto [3] (cell cycle stage: mitosis) were 49.8 °C and 51.2 °C, respectively. The thermal stability score in the data set with HeLa Kyoto [4] (setting [5]) was found to be 2.42; in the data set on HeLa Kyoto [4] (cell cycle stage: mitosis) it was 1.59.
Turning to “MANDSGGPGGPSPSERDRQYCELCGKMENLLRCSRCRSSFYCCKEHQRQDWKKHKLVCQGSEGALGHGVGPHQHSGPAPPAAVPPPRAGAREPRKAAARRDNASGDAAKGKVKAKPPADPAAAASPCRAAAGGQGSAVAAEAEPGKEEPPARSSLFQEKANLYPPSNTPGDALSPGGGLRPNGQTKPLPALKLALEYIVPCMNKHGICVVDDFLGKETGQQIGDEVRALHDTGKFTDGQLVSQKSDSSKDIRGDKITWIEGKEPGCETIGLLMSSMDDLIRHCNGKLGSYKINGRTKAMVACYPGNGTGYVRHVDNPNGDGRCVTCIYYLNKDWDAKVSGGILRIFPEGKAQFADIEPKFDRLLFFWSDRRNPHEVQPAYATRYAITVWYFDADERARAKVKYLTGEKGVRVELNKPSDSVGKDVF [EGLN1]”, the “solubility in G1/S (log2)” value in the data set with HeLa Kyoto [1] amounted to 0.331. The “solubility change mitosis (log2)” value in the data set with HeLa Kyoto [2] came out at 0.0496. The melting temperature with HeLa Kyoto [3] (cell cycle stage: G1/S) was determined as 49.3 °C; with HeLa Kyoto [3] (cell cycle stage: mitosis), 50.2 °C. Also, the thermal stability score stood at 2.53 in the data set on HeLa Kyoto [4] (setting [5]) and 0.714 in the data set on HeLa Kyoto [4] (cell cycle stage: mitosis).
